Residue numbers refer to the chain shown, from its start. Numbers in names are those of the source.
B1: human ClC-6 (natural protein)
chain: MAGCRGSLCCCCRWCCCCGERETRTPEELTILGETQEEEDEILPRKDYESLDYDRCINDPYLEVLETMDNKKGRRYEAVKWMVVFAIGVCTGLVGLFVDFFVRLFTQLKFGVVQTSVEECSQKGCLALSLLELLGFNLTFVFLASLLVLIEPVAAGSGIPEVKCYLNGVKVPGIVRLRTLLCKVLGVLFSVAGGLFVEKEGPMIHSGSVVGAGLPQFQSISLRKIQFNFPYFRSDRDKRDFVSAGAAAGVAAAFGAPIGGTLFSLEEGSSFWNQGLTWKVLFCSMSATFTLNFFRSGIQFGSWGSFQLPGLLNFGEFKCSDSDKKCHLWTAMDLGFFVVMGVIGGLLGATFNCLNKRLAKYRMRNVHPKPKLVRVLESLLVSLVTTVVVFVASMVLGECRQMSSSSQIGNDSFQLQVTEDVNSSIKTFFCPNDTYNDMATLFFNPQESAILQLFHQDGTFSPVTLALFFVLYFLLACWTYGISVPSGLFVPSLLCGAAFGRLVANVLKSYIGLGHIYSGTFALIGAAAFLGGVVRMTISLTVILIESTNEITYGLPIMVTLMVAKWTGDFFNKGIYDIHVGLRGVPLLEWETEVEMDKLRASDIMEPNLTYVYPHTRIQSLVSILRTTVHHAFPVVTENRGNEKEFMKGNQLISNNIKFKKSSILTRAGEQRKRSQSMKSYPSSELRNMCDEHIASEEPAEKEDLLQQMLERRYTPYPNLYPDQSPSEDWTMEERFRPLTFHGLILRSQLVTLLVRGVCYSESQSSASQPRLSYAEMAEDYPRYPDIHDLDLTLLNPRMIVDVTPYMNPSPFTVSPNTHVSQVFNLFRTMGLRHLPVVNAVGEIVGIITRHNLTYEFLQARLRQHYQTI
notes: ClC-6 (chloride-proton exchanger), human; cDNA in the pEG BacMam vector; residues up to H851 are seen in the structure, so the whole protein is likely; also called WT ClC-6; apo-ClC-6; source: HEK293F cells, BacMam virus, purified (Strep-Tactin Sepharose, size exclusion chromatography) in digitonin
B2: ClC-6 mutant (Y553C) (natural protein, human)
chain: B1 chain with Y553C
notes: ClC-6, human, with the disease-causing patient variant p.Y553C; made as apo-ClC-6; Variant found in patients (heterozygous p.Y553C), so the origin is written as natural; also called Y553C mutant; p.Y553C; source: HEK293F cells, BacMam virus, purified (Strep-Tactin Sepharose, size exclusion chromatography) in digitonin

Biological target: the molecule itself
Assay: cryo-EM structure; purified ClC-6 in 150 mM NaCl, 0.1% digitonin, 20 mM Hepes pH 7.4; apo, with 2 mM ATP and 2 mM MgCl2, and the Y553C mutant; C2 symmetry imposed

Protein | stoichiometry N | binding result
B1 | 2 | 
B2 |  | binds

— article PMC10575590, “Molecular basis of ClC-6 function and its impairment in human disease” (Science Advances, 2023)
